Laboratory results taken from publication PMC5437227.

How the values were obtained:
[1] = molecular target: pH-GluA1 S845D phosphomimetic mutant (UniProt P19490)
[2] = molecular target: pH-GluA1 S831A phosphodeficient mutant (UniProt P19490); test: co-IP; HEK293 cells co-transfected with HA-Nedd4-1 and pH-GluA1 constructs, lysed 48 h later (1% Triton X-100 lysis buffer with 10 mM N-ethylmaleimide); immunoprecipitation with anti-GFP antibodies on protein A-Sepharose overnight at 4 °C; blots with anti-HA and anti-GluA1; bound HA-Nedd4-1 quantified and normalized to the wild-type control
[3] = molecular target: pH-GluA1 S831D phosphomimetic mutant (UniProt P19490); test: as above
[4] = molecular target: pH-GluA1 S845A phosphodeficient mutant (UniProt P19490); test: as above
[5] = molecular target: pH-GluA1 S845D phosphomimetic mutant (UniProt P19490); test: as above

AMPA-induced ubiquitination of pH-GluA1 S845D in cortical neurons (IP: GFP, blot for ubiquitin), relative to wild type (% of WT control) [1]: 65.2
HA-Nedd4-1 binding, percent of WT control (% of WT control) [2]: 74.1
HA-Nedd4-1 binding, percent of WT control (% of WT control) [3]: 112
HA-Nedd4-1 binding, percent of WT control (% of WT control) [4]: 90.9
HA-Nedd4-1 binding, percent of WT control (% of WT control) [5]: 53.2
Substance: HA-Nedd4-1 (from UniProt P46934 1-1319) (enzyme)
